The values that follow come from paper PMC12502629, “The NagY antiterminator in Enterococcus faecalis: a novel regulatory mechanism and its impact on cell metabolism” (Microbiology Spectrum, 2025).

The test system of data set [1] is RNase III (RNase III*);NagY (Enterococcus faecalis V19?;Enterococcus faecalis V19?). Briefly: spectral shift (Monolith X). Particulars: RNase III* pre-incubated with NagY (8.5e-6 M), then RNA titrated; 1 mM MgCl2; ES-T buffer: 10 mM Tris pH 8.0, 40 mM NaCl, 10 mM KCl, 1 mM MgCl2, 0.05% Tween-80; room temperature (5 min pre-incubation); RNase III* stock 5e-8 M ….
Another data set has as its target T1, NagY antiterminator (Enterococcus faecalis, UniProt Q834W3 1-277).
T1 construct: NagY transcriptional antiterminator of Enterococcus faecalis, encoded by nagY (ef1515); source: E. coli M15 pRep4 pQE70-nagY, purified (HisTrap HP)
T1 sequence (looked up): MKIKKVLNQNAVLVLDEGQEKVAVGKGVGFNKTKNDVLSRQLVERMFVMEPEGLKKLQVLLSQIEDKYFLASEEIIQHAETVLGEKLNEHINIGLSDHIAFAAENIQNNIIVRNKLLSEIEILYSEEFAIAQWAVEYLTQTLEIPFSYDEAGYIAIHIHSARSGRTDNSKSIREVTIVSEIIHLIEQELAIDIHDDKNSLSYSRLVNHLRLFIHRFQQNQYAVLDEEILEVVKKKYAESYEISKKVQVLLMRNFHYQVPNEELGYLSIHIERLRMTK
As to the kind of experiment: other fluorescence titration; spectral shift (670 nm/650 nm) on Monolith X; RNase III* Cys-labeled at 50·10^-9 M, NagY serially diluted 5.2·10^-10 to 1.7·10^-5 M; ES-T buffer pH 8.0 (10 mM Tris, 40 mM NaCl, 10 mM KCl, 1 mM MgCl2, 0.05% Tween-80); independent triplicates. As to conditions: both partners purified.

The term Kd denotes a measure of binding affinity in units of concentration. 5' nagY RNA: the Kd in data set [1] was found to be 580 nM.

B1: RNase III (fluorescence-labeled, RNase III*) (enzyme, Enterococcus faecalis, UniProt Q82ZG1 1-230, looked up)
chain: MDNQLTTELKERYGIVFHDVNLLEQAFTHSSYVNEHRYLKLSDNERLEFLGDAVLELIVSQYLYLKFPELPEGKLTKMRAAIVREDSLAKFAKECHFDNYILLGKGEEASGGRTRASLLCDLFEAFLGALYLDQKVGAAKKFIEDVIFPKIDAGAFSHEMDHKTQLQEVLQRKGDVSIEYRLIKEEGPAHDRTFFTEVYMNGELIGLGQGKSKKLAEQDAAERALKSIPQ
modifications: Cys-labeled with Red-Maleimide 2nd Generation dye (degree of labeling 0.1 fluorescent tags per protein unit)
notes: RNase III of Enterococcus faecalis, a 26.2 kDa protein encoded by the rnc gene (ef3097); also called ribonuclease RNase III; rnc gene product; source: E. coli M15 pRep4 pQE30-rnc, purified (HisTrap HP)
Consider B1, for which the Kd with NagY antiterminator came out at 2500 nM.
